What was measured:
[1] = target: T1, Mlh1-Mlh3 (Saccharomyces cerevisiae) (UniProt P38920+Q12083); experiment: filter binding; settings: 2 mM Mg2+; Filter binding: 20 mM Tris-HCl pH 7.5, 0.01 mM EDTA, 2 mM MgCl2, 40 ug/mL BSA, 0.1 mM DTT, 15 uM nucleotide DNA, 10 min at 30 C (20 or 150 mM KCl in Fig 4B …)
T1 sequence 1: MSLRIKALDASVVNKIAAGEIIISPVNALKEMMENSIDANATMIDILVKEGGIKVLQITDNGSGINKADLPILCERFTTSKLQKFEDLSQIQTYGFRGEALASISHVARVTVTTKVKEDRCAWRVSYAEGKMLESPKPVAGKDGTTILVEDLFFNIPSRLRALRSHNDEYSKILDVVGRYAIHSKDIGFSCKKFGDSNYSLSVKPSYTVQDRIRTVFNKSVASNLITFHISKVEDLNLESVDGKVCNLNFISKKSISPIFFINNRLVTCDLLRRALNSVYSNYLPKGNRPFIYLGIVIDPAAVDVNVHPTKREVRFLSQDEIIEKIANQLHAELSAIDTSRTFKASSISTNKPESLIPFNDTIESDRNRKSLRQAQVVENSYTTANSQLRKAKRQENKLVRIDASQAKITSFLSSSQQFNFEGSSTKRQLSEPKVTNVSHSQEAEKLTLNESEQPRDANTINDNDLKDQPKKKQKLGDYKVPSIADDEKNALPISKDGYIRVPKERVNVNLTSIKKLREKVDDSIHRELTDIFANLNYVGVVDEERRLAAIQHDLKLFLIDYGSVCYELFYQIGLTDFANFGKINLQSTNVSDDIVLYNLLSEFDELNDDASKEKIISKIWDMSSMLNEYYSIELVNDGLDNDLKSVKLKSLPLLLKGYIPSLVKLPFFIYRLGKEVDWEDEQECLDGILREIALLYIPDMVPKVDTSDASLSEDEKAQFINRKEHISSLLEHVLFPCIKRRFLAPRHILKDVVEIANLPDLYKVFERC
T1 sequence 2: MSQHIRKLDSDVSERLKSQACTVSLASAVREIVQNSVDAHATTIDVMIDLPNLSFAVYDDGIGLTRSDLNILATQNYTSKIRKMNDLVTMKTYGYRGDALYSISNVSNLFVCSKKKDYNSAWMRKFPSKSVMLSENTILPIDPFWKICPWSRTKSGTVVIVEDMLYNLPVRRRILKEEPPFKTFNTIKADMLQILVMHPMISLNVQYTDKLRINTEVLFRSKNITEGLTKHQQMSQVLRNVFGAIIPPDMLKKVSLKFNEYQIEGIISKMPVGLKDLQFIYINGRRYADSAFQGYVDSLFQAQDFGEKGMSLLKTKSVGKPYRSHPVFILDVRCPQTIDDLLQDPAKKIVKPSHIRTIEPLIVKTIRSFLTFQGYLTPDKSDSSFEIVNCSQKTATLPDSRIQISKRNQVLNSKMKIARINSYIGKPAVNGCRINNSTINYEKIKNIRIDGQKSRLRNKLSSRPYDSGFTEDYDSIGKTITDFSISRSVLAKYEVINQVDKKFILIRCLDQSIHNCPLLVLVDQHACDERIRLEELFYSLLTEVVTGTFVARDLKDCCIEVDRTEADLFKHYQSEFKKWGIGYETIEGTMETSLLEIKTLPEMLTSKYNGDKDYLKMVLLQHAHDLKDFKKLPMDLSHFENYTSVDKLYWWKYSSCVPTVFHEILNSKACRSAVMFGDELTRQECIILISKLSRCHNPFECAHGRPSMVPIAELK

[2] = target: Yeast wild-type Mlh1-Mlh3 (yeast (S. cerevisiae)) (UniProt P38920)

| amount of nicked product made by Mlh1-Mlh3 on the 7.2 kb +8 loop circular substrate, without and with Msh2-Msh3 (10% without) [2] | amount of nicked product made by Mlh1-Mlh3 on the 7.2 kb homoduplex circular substrate, without and with Msh2-Msh3 (15% without) [2] | Substance | Kd [1] |
| --- | --- | --- | --- |
|  |  | 2.7 kb linear pUC18 (HindIII) | 100 nM |
|  |  | 7 kb linear pEAE399 (HindIII) | 65 nM |
|  |  | 12 kb linear pEAE99 (HindIII) | 40 nM |
| 21% | 36% | Yeast Msh2-Msh3 (from UniProt P25847 1-964; P25336 1-1018) (complex) |  |
